Measured values reported in PMC6202814.

Columns and labels:
[1] = substrate: O=C[C@@H](O)CO; test: purified protein; details: donor DHAP 60 mM, 50 mM TEA pH 7.5, 25 °C, apparent
[2] = substrate: O=C(CO)CO; test: purified protein; details: acceptor varied 2-80 mM, donor DHAP 60 mM, 50 mM TEA pH 7.5, 25 °C, apparent

Protein | Km ([1]; acceptor varied 0.5-60 mM) [mM] | Vmax ([1]; acceptor varied 0.5-60 mM) [µmol/min/mg] | kcat ([1]; acceptor varied 0.5-60 mM) [s⁻¹] | kcat/Km ([1]; acceptor varied 0.5-60 mM) [M⁻¹ s⁻¹] | Km ([1]; acceptor varied 0.2-60 mM) [mM] | Vmax ([1]; acceptor varied 0.2-60 mM) [µmol/min/mg] | kcat ([1]; acceptor varied 0.2-60 mM) [s⁻¹] | kcat/Km ([1]; acceptor varied 0.2-60 mM) [M⁻¹ s⁻¹] | Km [2] [mM] | Vmax [2] [µmol/min/mg] | kcat [2] [s⁻¹] | kcat/Km [2] [M⁻¹ s⁻¹]
L-fuculose-1-phosphate aldolase (FucA) (Escherichia coli K-12) (protein) MERNKLARQIIDTCLEMTRLGLNQGTAGNVSVRYQDGMLITPTGIPYEKLTESHIVFIDGNGKHEEGKLPSSEWRFHMAAYQSRPDANAVVHNHAVHCTAVSILNRSIPAIHYMIAAAGGNSIPCAPYATFGTRELSEHVALALKNRKATLLQHHGLIACEVNLEKALWLAHEVEVLAQLYLTTLAITDPVPVLSDEEIAVVLEKFKTYGLRIEE | 54.1 ± 3.6 | 1.5 | 5 | 92 |  |  |  |  |  |  |  | 
L-rhamnulose-1-phosphate aldolase (RhaD) (Escherichia coli K-12) (protein) MQNITQSWFVQGMIKATTDAWLKGWDERNGGNLTLRLDDADIAPYHDNFHQQPRYIPLSQPMPLLANTPFIVTGSGKFFRNVQLDPAANLGIVKVDSDGAGYHILWGLTNEAVPTSELPAHFLSHCERIKATNGKDRVIMHCHATNLIALTYVLENDTAVFTRQLWEGSTECLVVFPDGVGILPWMVPGTDEIGQATAQEMQKHSLVLWPFHGVFGSGPTLDETFGLIDTAEKSAQVLVKVYSMGGMKQTISREELIALGKRFGVTPLASALAL |  |  |  |  | 40.8 ± 5.8 | 4.3 | 20.5 | 500 | 23.4 ± 9.69 | 0.86 | 4.1 | 180
